Where “and” joins values, the source holds several entries; their conditions need not be identical. Identical values can stand only once.
Target: SARS-CoV-2 Omicron BA.5 sublineage receptor binding domain (RBD) (SARS-CoV-2) (UniProt P0DTC2)
Experiment: SPR

DPP4_(270–295) peptide
Kd: 1200 nM and 1530 nM
koff: 0.0014 s⁻¹
kon: 1160 M⁻¹ s⁻¹
